Source: paper doi:10.1101/2025.05.22.655130v1

These proteins were tested on O=[N+]([O-])c1ccc(O[C@@H]2O[C@H](CO)[C@@H](O)[C@H](O)[C@H]2O)cc1 (assay: purified protein). Conditions: 0.11-100 mM substrate, readings every minute for 15 min; triplicate.
Format: biochemical, Paenibacillus polymyxa

Protein | Km [mM] | kcat [s⁻¹]
β-glucosidase B (BglB) (Paenibacillus polymyxa; L339M) (protein) MSENTFIFPATFMWGTSTSSYQIEGGTDEGGRTPSIWDTFCQIPGKVIGGDCGDVACDHFHHFKEDVQLMKQLGFLHYRFSVAWPRIMPAAGIINEEGLLFYEHLLDEIELAGLIPMLTLYHWDLPQWIEDEGGWTQRETIQHFKTYASVIMDRFGERINWWNTINEPYCASILGYGTGEHAPGHENWREAFTAAHHILMCHGIASNLHKEKGLTGKIGITLNMEHVDAASERPEDVAAAIRRDGFINRWFAEPLFNGKYPEDMVEWYGTYLNGLDFVQPGDMELIQQPGDFLGINYYTRSIIRSTNDASLLQVEQVHMEEPVTDMGWEIHPESFYKLMTRIEKDFSKGLPILITENGAAMRDELVNGQIEDTGRHGYIEEHLKACHRFIEEGGQLKGYFVWSFLDNFEWAWGYSKRFGIVHINYETQERTPKQSALWFKQMMAKNGF | 4.72 ± 0.82 | 6.58 ± 0.302
β-glucosidase B (BglB) (Paenibacillus polymyxa; D38W) (protein) MSENTFIFPATFMWGTSTSSYQIEGGTDEGGRTPSIWWTFCQIPGKVIGGDCGDVACDHFHHFKEDVQLMKQLGFLHYRFSVAWPRIMPAAGIINEEGLLFYEHLLDEIELAGLIPMLTLYHWDLPQWIEDEGGWTQRETIQHFKTYASVIMDRFGERINWWNTINEPYCASILGYGTGEHAPGHENWREAFTAAHHILMCHGIASNLHKEKGLTGKIGITLNMEHVDAASERPEDVAAAIRRDGFINRWFAEPLFNGKYPEDMVEWYGTYLNGLDFVQPGDMELIQQPGDFLGINYYTRSIIRSTNDASLLQVEQVHMEEPVTDMGWEIHPESFYKLLTRIEKDFSKGLPILITENGAAMRDELVNGQIEDTGRHGYIEEHLKACHRFIEEGGQLKGYFVWSFLDNFEWAWGYSKRFGIVHINYETQERTPKQSALWFKQMMAKNGF | 2.80 ± 0.55 | 0.217 ± 0.01
β-glucosidase B (BglB) (Paenibacillus polymyxa; L339A) (protein) MSENTFIFPATFMWGTSTSSYQIEGGTDEGGRTPSIWDTFCQIPGKVIGGDCGDVACDHFHHFKEDVQLMKQLGFLHYRFSVAWPRIMPAAGIINEEGLLFYEHLLDEIELAGLIPMLTLYHWDLPQWIEDEGGWTQRETIQHFKTYASVIMDRFGERINWWNTINEPYCASILGYGTGEHAPGHENWREAFTAAHHILMCHGIASNLHKEKGLTGKIGITLNMEHVDAASERPEDVAAAIRRDGFINRWFAEPLFNGKYPEDMVEWYGTYLNGLDFVQPGDMELIQQPGDFLGINYYTRSIIRSTNDASLLQVEQVHMEEPVTDMGWEIHPESFYKLATRIEKDFSKGLPILITENGAAMRDELVNGQIEDTGRHGYIEEHLKACHRFIEEGGQLKGYFVWSFLDNFEWAWGYSKRFGIVHINYETQERTPKQSALWFKQMMAKNGF | 24.3 ± 1.65 | 9.47 ± 0.248
β-glucosidase B (BglB) (Paenibacillus polymyxa; L339S) (protein) MSENTFIFPATFMWGTSTSSYQIEGGTDEGGRTPSIWDTFCQIPGKVIGGDCGDVACDHFHHFKEDVQLMKQLGFLHYRFSVAWPRIMPAAGIINEEGLLFYEHLLDEIELAGLIPMLTLYHWDLPQWIEDEGGWTQRETIQHFKTYASVIMDRFGERINWWNTINEPYCASILGYGTGEHAPGHENWREAFTAAHHILMCHGIASNLHKEKGLTGKIGITLNMEHVDAASERPEDVAAAIRRDGFINRWFAEPLFNGKYPEDMVEWYGTYLNGLDFVQPGDMELIQQPGDFLGINYYTRSIIRSTNDASLLQVEQVHMEEPVTDMGWEIHPESFYKLSTRIEKDFSKGLPILITENGAAMRDELVNGQIEDTGRHGYIEEHLKACHRFIEEGGQLKGYFVWSFLDNFEWAWGYSKRFGIVHINYETQERTPKQSALWFKQMMAKNGF | 4.44 ± 0.62 | 9.53 ± 0.348
β-glucosidase B (BglB) (Paenibacillus polymyxa; L339H) (protein) MSENTFIFPATFMWGTSTSSYQIEGGTDEGGRTPSIWDTFCQIPGKVIGGDCGDVACDHFHHFKEDVQLMKQLGFLHYRFSVAWPRIMPAAGIINEEGLLFYEHLLDEIELAGLIPMLTLYHWDLPQWIEDEGGWTQRETIQHFKTYASVIMDRFGERINWWNTINEPYCASILGYGTGEHAPGHENWREAFTAAHHILMCHGIASNLHKEKGLTGKIGITLNMEHVDAASERPEDVAAAIRRDGFINRWFAEPLFNGKYPEDMVEWYGTYLNGLDFVQPGDMELIQQPGDFLGINYYTRSIIRSTNDASLLQVEQVHMEEPVTDMGWEIHPESFYKLHTRIEKDFSKGLPILITENGAAMRDELVNGQIEDTGRHGYIEEHLKACHRFIEEGGQLKGYFVWSFLDNFEWAWGYSKRFGIVHINYETQERTPKQSALWFKQMMAKNGF | 3.55 ± 0.26 | 11.2 ± 0.222
β-glucosidase B (BglB) (Paenibacillus polymyxa; D38E) (protein) MSENTFIFPATFMWGTSTSSYQIEGGTDEGGRTPSIWETFCQIPGKVIGGDCGDVACDHFHHFKEDVQLMKQLGFLHYRFSVAWPRIMPAAGIINEEGLLFYEHLLDEIELAGLIPMLTLYHWDLPQWIEDEGGWTQRETIQHFKTYASVIMDRFGERINWWNTINEPYCASILGYGTGEHAPGHENWREAFTAAHHILMCHGIASNLHKEKGLTGKIGITLNMEHVDAASERPEDVAAAIRRDGFINRWFAEPLFNGKYPEDMVEWYGTYLNGLDFVQPGDMELIQQPGDFLGINYYTRSIIRSTNDASLLQVEQVHMEEPVTDMGWEIHPESFYKLLTRIEKDFSKGLPILITENGAAMRDELVNGQIEDTGRHGYIEEHLKACHRFIEEGGQLKGYFVWSFLDNFEWAWGYSKRFGIVHINYETQERTPKQSALWFKQMMAKNGF | 2.72 ± 0.31 | 0.272 ± 0.00667
